Experimental data: the supplement of paper PMC10126150
± gives the standard deviation of the averaged measurements.

System: ATP
Assay: switch fluorescence ratio, 500 uM ATP over buffer (Cy3 cluster intensity, sum of 5 cycles each) (fold (ratio)); higher = stronger signal-on switching upon ATP binding; sequences stand for … in TCGTCGGCAGCGTCAGATGTGTATAAGAGACAGTTTTTTTTTTTTTTTTTTTTTTTTT…TC
Conditions: aptamer strand: ATP DNA aptamer (quencher-CACCTGGGGGAGTATTGCGGAGGAAGG + anchor), 100 nM annealed; ATP concentration: 500 uM
Method in brief: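 Per cluster, summed Cy3 intensity from the target cycles was divided by that from the buffer cycles to give the fluorescence ratio, then averaged per switch-domain sequence. Clusters outside 100-1000 RFU were excluded. The Cy3-labelled switching-strand clusters, on a modified Illumina MiSeq flow-cell, were annealed to 100 nM quencher-labelled ATP aptamer and imaged in selection buffer, then after 15 min with 500 uM ATP at 22 °C, for five cycles with NaOH stripping and re-annealing between them.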
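Note: ATP exposure 15 min at 22 °C before imaging.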

Sequence | switch fluorescence ratio
AACAGGAAGC | 1.01 ± 0.017
TCTTTTGGAT | 0.994 ± 0.019
CTAGAGGGTA | 0.98923 ± 0.00094
GTTGTGGCGG | 0.97 ± 0.021
AATGGTATGT | 1.032 ± 0.0088
TCTGTGTAGC | 1 ± 0.027
CGTGAGCTTG | 1.0004 ± 4.9e-05
ATCATTGTTA | 1 ± 0.053
ATACTTGATT | 0.994 ± 0.025
GGCACCTGAC | 1.95 ± 0.11
ATGTAATTAA | 0.964 ± 0.046
CTGGCTTTTG | 0.999 ± 0.017
ATTACAGGGC | 1.03 ± 0.012
CGGTGGCTGG | 0.972 ± 0.036
TGGATGGGGA | 0.98 ± 0.028
TGCGAGTTCT | 1 ± 0.014
TTCGAGGTGC | 1.04 ± 0.05
GGCAATGAAG | 1.03 ± 0.049
ACGGGGCTAA | 1.12 ± 0.15
ATTTTTCTAT | 0.987 ± 0.027
GGTTGAGGTT | 1.04 ± 0.022
TAGAGATGGT | 0.962 ± 0.024
AATTTGCGAC | 1.05 ± 0.011
GGTTCAGGGC | 1.02 ± 0.047
ACGGGATCAT | 1.07 ± 0.054

Sequence | switch fluorescence ratio
TTTGCTACGT | 1.01 ± 0.051
CTGCTGGGGC | 1.05 ± 0.026
AGGCTAAAG | 0.974 ± 0.01
GGGGCATGGC | 1.02 ± 0.028
TTATCATTC | 1.01 ± 0.019
ACTCGGGGGG | 0.991 ± 0.023
CAATATTAGT | 0.996 ± 0.024
TGTGATGGTT | 1.005 ± 0.0013
ACAATTGCTA | 0.994 ± 0.03
AATTCGTGCG | 0.9872 ± 0.0086
CTGAATTGGG | 0.999 ± 0.021
GGTCTGGAAG | 0.982 ± 0.035
TCTGGTACAG | 0.969 ± 0.02
TTAGCATTTA | 1.03 ± 0.013
GTCAGAGAGT | 1.02 ± 0.013
GGAGAGGCAG | 0.975 ± 0.026
GAACGTCGGA | 1.028 ± 0.0027
CGGGTATGGA | 1.02 ± 0.033
AAAAATTTGT | 0.993 ± 0.05
AGGGGTATTC | 1.01 ± 0.049
GGGATCCCTT | 1.03 ± 0.05
CGTGATGTTT | 1 ± 0.047
AGATTCCGCT | 1.108 ± 0.011
GATTCGTTTT | 1 ± 0.031
TAGATTTTGC | 1.03 ± 0.027

Sequence | switch fluorescence ratio
TTTAAAGAGG | 0.9813 ± 0.0042
CTATACGGAG | 1.09 ± 0.13
GATGTGGCTT | 0.961 ± 0.015
ATTAAGGGGC | 1.02 ± 0.017
TAAGCTGGGG | 0.9861 ± 0.0052
AATAGGGGGG | 1.01 ± 0.024
GGGGGTACAT | 0.99 ± 0.011
TATATAAGAT | 1 ± 0.058
TATTCACGGG | 1.0859 ± 0.00034
TTTTTTCAGG | 1.03 ± 0.027
GGTTGGCCGT | 1.03 ± 0.051
TATTTGGGCG | 1.053 ± 0.0059
TTTATGGATT | 1.006 ± 0.01
GGAAATAGTG | 0.966 ± 0.044
AAACGCCTTA | 1.03 ± 0.015
GTGAAGAAGG | 1.13 ± 0.2
ACAGTGTGGG | 1.05 ± 0.018
AAAGCAGTTT | 1.05 ± 0.022
CAACGAGTGG | 1.012 ± 0.0028
GGATGCTGGT | 1.04 ± 0.053
AAATGCTGGG | 0.99 ± 0.031
GGGGTGGGTC | 0.974 ± 0.012
AACTTGTCGA | 0.886 ± 0.047
AGGCCTCGCA | 1.03 ± 0.039
GACTTCGAGC | 1.02 ± 0.024

Sequence | switch fluorescence ratio
TTCCAAGATC | 1.18 ± 0.12
GAGAGGCTGT | 0.9538 ± 0.0062
GTTTATCCGT | 0.996 ± 0.055
CGTATTTAGA | 0.99 ± 0.064
AAGTGAGTGC | 1 ± 0.059
GGTTTGGGTG | 0.995 ± 0.04
GACATGATGT | 1.032 ± 0.0063
AATCTATAAT | 1.007 ± 0.0018
TCCCGGCCTG | 1.012 ± 0.0041
TTCCAATTTG | 1 ± 0.014
ATTTGCTGCG | 0.947 ± 0.087
TTAGGCAGTA | 1.01 ± 0.067
CAGGGTTGCC | 0.996 ± 0.018
TGTGGGGAGG | 0.969 ± 0.027
AGGAGGGGGG | 1.01 ± 0.039
CGTGACTCTA | 1.03 ± 0.046
AAGTATAATG | 1.02 ± 0.054
TGGATCACGG | 1.02 ± 0.0054
TTTTAGTTTA | 1.01 ± 0.031
CACAGAGGGG | 1.02 ± 0.028
AACGTTGGTA | 0.989 ± 0.034
AGCTGAAGTT | 0.989 ± 0.036
TTGTTCCTTG | 1.01 ± 0.022
GTAAAAGTTG | 1 ± 0.026
TTTGCAAGGA | 1.02 ± 0.045

Sequence | switch fluorescence ratio
TTTTGTTTGA | 0.995 ± 0.01
GGGACGGGTT | 0.974 ± 0.029
TTCGGTACGT | 0.999 ± 0.0024
TCATTGTTAT | 0.999 ± 0.036
GGGTGCTTGG | 1.0239 ± 0.00098
ACGATTGTGG | 0.983 ± 0.014
GACGGTTGCG | 0.977 ± 0.054
GGTATGGATC | 0.9869 ± 0.0084
GCGCTAATTT | 1.28 ± 0.59
GGAGGCGGGC | 0.963 ± 0.12
ACGCTTTAGT | 1.01 ± 0.036
GAAATGGTAT | 1 ± 0.011
GGCATCATGT | 1.012 ± 0.0039
TGTTCCGTAT | 0.993 ± 0.044
GAGGTTTCTA | 0.993 ± 0.038
CATCATCTTG | 1 ± 0.062
AAAAATCTGG | 1.45 ± 0.67
GGAAAAAATA | 1.001 ± 0.0072
TTTGAGGACA | 1.01 ± 0.012
TTTAGCGCGG | 1 ± 0.029
TATGATCACG | 0.995 ± 0.011
GTTTAAAACG | 0.9961 ± 0.0073
GGGTACAGCT | 1.014 ± 0.0047
GTTGATTATG | 0.995 ± 0.014
ATTTTTAAGG | 0.995 ± 0.021

Sequence | switch fluorescence ratio
AAAAAAATTC | 1.05 ± 0.079
GTGGGGGCGT | 1 ± 0.026
CTCTTATAGT | 0.969 ± 0.019
GCGGGGACGG | 1.07 ± 0.034
TTAGAGAGTG | 0.984 ± 0.044
AATTGATTGG | 0.983 ± 0.032
AAAAAACCTA | 1.063 ± 0.008
TCGAGGGTCT | 1.023 ± 0.0083
TTAAACCGCT | 1.08 ± 0.053
TAGCAAGTG | 1.04 ± 0.041
TCCTGGCTTT | 1.26 ± 0.29
TACTGGGGCT | 1.04 ± 0.034
TTGGCGTCAA | 1.36 ± 0.51
GATTGGGCTG | 0.984 ± 0.056
AATGATCGAC | 0.975 ± 0.012
TGATATAGAG | 1 ± 0.029
CCTTTTTGAA | 0.986 ± 0.049
CAGGAGAGCG | 0.9934 ± 0.0077
ACAATCGGAA | 1.025 ± 0.0014
TCATTAAGGC | 1.01 ± 0.015
ATAGTATGTT | 0.99 ± 0.051
GGTGAGGGGA | 1.01 ± 0.011
ACAGGATTGG | 1.01 ± 0.017
AGGGGTGAGT | 1.02 ± 0.04
TGGTTTTTTG | 0.996 ± 0.017

Sequence | switch fluorescence ratio
AAGTATAGGT | 1.03 ± 0.017
TTCTCGGGCT | 0.994 ± 0.031
GCTGAGGGTT | 0.9552 ± 0.006
CCTTGTTTGG | 1.01 ± 0.011
TGAGAGTAGG | 0.9839 ± 0.0072
AGGGTTGGGC | 1.01 ± 0.021
AAGTGCTGGG | 0.993 ± 0.034
AAAGTTTTAT | 0.984 ± 0.025
ACTGACTGGT | 1.06 ± 0.037
GTGGGGGGTA | 1 ± 0.031
CCACCATATT | 1.07 ± 0.039
ATTTCTGGGA | 0.982 ± 0.031
CATGGGAGAG | 1.05 ± 0.026
GAGATTGGTG | 1 ± 0.031
CGTTACTACG | 1.06 ± 0.028
ATAGCTACGC | 1.035 ± 0.003
GAGCTGGCGG | 1.05 ± 0.038
CCTTTGTTGG | 1.01 ± 0.013
TTCTAGCTAT | 1.58 ± 0.78
TTAATGGTTG | 0.975 ± 0.032
ATAGTGCTGT | 0.97717 ± 0.00097
TAAGCTGGAG | 1.07 ± 0.14
GCTCGACAAT | 1.15 ± 0.14
TTTCGCGGTC | 1.9 ± 1.1
TTGCGTTGGC | 0.984 ± 0.043

Sequence | switch fluorescence ratio
ATCTTTTTGG | 0.996 ± 0.024
GAGGGTTTTT | 1 ± 0.021
TGGAGGGGGG | 0.997 ± 0.086
ACGTTTAACT | 1.25 ± 0.015
TACTGGGCAC | 3.22 ± 3
TCAATGGTAT | 1.17 ± 0.28
AAAAGTTTTC | 0.975 ± 0.0098
TATGTACTGT | 1.09 ± 0.03
AAGGTAATTT | 1.01 ± 0.03
TTCAGGATGT | 1 ± 0.025
CGGGTTACGA | 1.02 ± 0.028
CTAGTGCTTG | 1.008 ± 0.0032
ACTGTATACG | 1.08 ± 0.026
CAGGGTGCTG | 0.973 ± 0.033
TTGTAGGACC | 1 ± 0.056
TTATGCCACG | 1.04 ± 0.016
GAGGAAACAG | 1.022 ± 0.0067
ATGGCTTGTA | 0.999 ± 0.01
TGGGGGGTTC | 1.04 ± 0.082
AATGTATCGT | 0.978 ± 0.021
TTATTTGGA | 0.98 ± 0.04
ATTTTTATAC | 1.02 ± 0.021
TGGAGAGGTC | 0.999 ± 0.022
CGTGCGTGCT | 1.01 ± 0.023
TAGTGTGGGC | 0.999 ± 0.017
